Assay results as given in US8450464 (Bristol-Myers Squibb, dated 2013).
Numbering of substitutions follows the chain as printed. Values belong to the molecule of their own block, whether it stands above or below them.

Key:
human CXCR4 [1] = target: T1, human CXCR4 (human, UniProt P61073 1-352); assay: competition flow cytometry on CEM cells: unlabeled antibody titrated against a constant concentration of FITC-labeled F9, fluorescent geometric mean; unit from the axis 'Ab Concentration in nM'
human CXCR4 [2] = target: T1, human CXCR4; assay: cell-based or functional assay
human CXCR4 [3] = target: T1, human CXCR4; assay: flow cytometry on CEM cells, FITC anti-human IgG detection
Protocol: (§1) The antibodies were then mixed with CEM cells and allowed to bind before being detected with a FITC-conjugated anti-human IgG secondary antibody. The cells were then analyzed by fluorescent cytometry.

human CXCR4 [4] = target: T1, human CXCR4; assay: radioligand competition on CEM cells; competitor 100 pM 125I-SDF-1
Protocol: The anti-CXCR4 antibodies were serially diluted 1:3 to yield a range of concentrations from 300 nM to 137 pM. […] An irrelevant antibody of the same isotype was used as a negative control.

human CXCR4 [5] = target: T1, human CXCR4; assay: flow cytometry titration on CEM cells (native human CXCR4), FITC anti-human IgG secondary, MFI; unit from the axis 'Conc in nM'
Protocol: as §1

human CXCR4 [6] = target: T1, human CXCR4; assay: flow cytometry titration on CEM cells (native human CXCR4), FITC anti-human IgG secondary, MFI; unit from the axis 'Conc in nM'; the curve is still rising at the highest concentration, no upper plateau
Protocol: as §1

human CXCR4 [7] = target: T1, human CXCR4; assay: competition flow cytometry on CEM cells: unlabeled antibody titrated against a constant concentration of FITC-labeled F9, fluorescent geometric mean; unit from the axis 'Ab Concentration in nM'; the fitted value lies above the highest concentration shown (about 300 nM), inhibition is only partial
Protocol: To determine the ability of a panel of anti-CXCR4 antibodies to compete for binding to CXCR4, competition studies were performed. […] The mixture of antibodies was then added to CEM cells and allowed to bind.

T1 sequence (P61073 whole entry): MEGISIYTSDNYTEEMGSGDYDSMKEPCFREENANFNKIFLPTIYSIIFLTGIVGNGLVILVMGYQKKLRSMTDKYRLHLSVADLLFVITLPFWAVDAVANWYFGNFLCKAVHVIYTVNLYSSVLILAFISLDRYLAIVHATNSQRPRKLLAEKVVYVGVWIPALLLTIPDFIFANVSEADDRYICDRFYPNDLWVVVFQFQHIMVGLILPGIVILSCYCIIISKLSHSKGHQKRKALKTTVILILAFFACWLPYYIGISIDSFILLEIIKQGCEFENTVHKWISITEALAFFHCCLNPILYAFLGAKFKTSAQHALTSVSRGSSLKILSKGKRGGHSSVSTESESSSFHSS

EC50 (human CXCR4 [1]): 102 nM
Molecule: murine monoclonal anti-CXCR4 antibody 12G5

EC50 for inhibition of SDF-1-induced calcium flux in CEM cells (human CXCR4 [2]): 0.57 nM
EC50 (human CXCR4 [3]): 80 nM
EC50 (human CXCR4 [4]): 28.6 nM
EC50 (human CXCR4 [5]): 79.9 nM
EC50 (human CXCR4 [1]): 59.2 nM
B1: anti-CXCR4 human monoclonal antibody D1 (antibody, V domains shown)
VH: EVQLVQSGGGLVQPGGSLRLSCAAAGFTFSSYSMNWVRQAPGKGLEWVSYISSRSKTIYYADSVKGRFTISRDNARNSLYLQMNSLRDEDTAVYYCARDYGGQPPYYYYYGMDVWGQGTTVTVSS
VL: VIWVTQSPSSLSASVGDRVTITCRTSQGISSWLAWYQQKPEKAPELLIYAASSLQSGVPSRFSGSGSGTDFTLTISSLQPEDFATYYCQQYNSYPRTFGQGTKVEIK
notes: Tested as full-length antibody

EC50 (human CXCR4 [3]): 290 nM
EC50 (human CXCR4 [6]): 290 nM
EC50 (human CXCR4 [7]): 469 nM
B2: anti-CXCR4 human monoclonal antibody E2 (antibody, V domains shown)
VH: B1 VH with K56R, R76K, Y107H
VL: B1 VL with V1E, W3V, V4L, T25A, S31N, E45K, L46S
notes: as for B1
